For data set [1], the system named is clot-derived leukocytes and lymphocytes. The data set can be described thus: Flow cytometric analysis of clots, cell viability (annexin V / PI). The data set is classed as cell-based, human. How it is done: (§1) Human peripheral blood was collected from healthy individuals without anticoagulant and allowed to coagulate for 24 hours as described earlier. Clots were washed with phosphate-buffered saline (PBS) containing Ca2+ (0.9 mM) and Mg2+ (0.5 mM) and then gently homogenized and passed through a 70-micron filter. Clot-derived cells were stained for flow cytometric analysis. Cells were stained in FACS buffer (PBS with 1% BSA and 0.1% sodium azide). […] For viability assays, FITC-conjugated annexin V (BD) and propidium iodide (PI) were added to the cells according to the manufacturer's protocol. Samples were analyzed with a FACS Canto II flow cytometer (BD Bioscience) and FlowJo X Software.
For orientation: A flow cytometer gives signals particle by particle.

Test in data set [2]: as above
The note with it: human. The data set is classed as cell-based, human. The method, then: as §1

Data set [3] has as its system human blood clot. The data set can be described thus: Clot volume after 24 hours of coagulation. The data set is classed as cell-based. The note with it: eptifibatide 20 μM, P<0.01.
Method: (A to E) Freshly drawn human peripheral blood (4 ml) containing heparin (10 U/ml) was placed in polypropylene tubes (A) whereas human peripheral blood without anticoagulant was placed in silicone-coated tubes (B to E) and incubated at 37° C. for the time course of 0 to 24 hours (see Example 1, Materials and Methods). The samples were then subjected to snap-freezing for extraction and LC-MS/MS analysis. […] (B) Left: Combined concentrations of the total SPM cluster, prostaglandins, and thromboxanes after 24 hours of coagulation in the presence or absence of the αIIbβ3 inhibitor eptifibatide (Eptifib.; 20 μM). Middle: Clot volumes after 24 hours of coagulation of the indicated samples. Right: Representative clot images. Data are means±SEM of three individual donors.
Human whole blood was transferred in 4-ml aliquots to negatively charged, silicone-coated 10-ml tubes (BD) without anticoagulant. For experiments with heparin, the heparinized blood was placed in 15-ml polypropylene tubes before incubation at 37° C. For LM profiling at designated times, all samples were immediately subjected to a workup procedure by which whole blood was snap-frozen in a dry ice/isopropanol bath and were returned to room temperature (×3 cycles) before undergoing centrifugation at 100,000 g at 4° C.
For data set [4], the system named is SPM production in human whole blood. Nature of the data set: SPM and eicosanoid production during coagulation with heparin, eptifibatide, ADA, celecoxib or BAI. The class given is cell-based. The method, then:
FIG. 2 illustrates regulators of SPM formation in human blood. (A to E) Freshly drawn human peripheral blood (4 ml) containing heparin (10 U/ml) was placed in polypropylene tubes (A) whereas human peripheral blood without anticoagulant was placed in silicone-coated tubes (B to E) and incubated at 37° C. for the time course of 0 to 24 hours (see Example 1, Materials and Methods). The samples were then subjected to snap-freezing for extraction and LC-MS/MS analysis. (A) Concentrations of the members of the SPM cluster (identified in FIG. 1) in samples treated without (Coag.) or with heparin (10 U/ml) during the incubation period. Data are means±SEM of three individual donors. (B) Left: Combined concentrations of the total SPM cluster, prostaglandins, and thromboxanes after 24 hours of coagulation in the presence or absence of the αIIbβ3 inhibitor eptifibatide (Eptifib.; 20 μM). Middle: Clot volumes after 24 hours of coagulation of the indicated samples. Right: Representative clot images. Data are means±SEM of three individual donors. (C) Concentrations of total SPMs and of the indicated individual SPMs after 24 hours of coagulation in the presence or absence of 200 mU ADA. Data are means±SEM of three individual donors. *P<0.05, **P<0.01 by ratio t-test. (D) Top: LC-MS/MS measurements of adenosine concentrations in whole blood at the indicated time points during coagulation in the presence or absence of ADA. **P<0.01 when compared to the zero-hour time point. Bottom: Flow cytometric analysis of the percentage of neutrophil-platelet aggregates, which were defined as being double-positive for CD16 and CD42b, in whole blood allowed to coagulate for the indicated times in the absence (Coag.) or presence of ADA. Data are means±SEM of five individual donors. *P<0.05, **P <0.01 by student's t test. For dot plots and gating, see FIG. 7B. (E) MS/MS fragmentation profiles with diagnostic ions for the indicated SPMs identified in (C). (F) Left: PCA score plot. Red denotes +ADA for 1 hour; yellow, coagulation for 1 hour; green, coagulation for 24 hours; blue, +ADA for 24 hours. Right: PCA loading plot showing temporal clustering of the indicated mediators from three individual donors. Red denotes LM at 1 hour; blue denotes 24 hours with ADA).
FIG. 8 illustrates SPM formation in human blood clots being regulated by lipoxygenase activity. (A and B) Freshly drawn human peripheral blood (4 ml) was placed in silicone-coated tubes at 37° C. for 24 hours and coagulation was stopped by snap-freezing before LC-MS/MS analysis was performed. Concentrations of total SPMs, prostaglandins, and thromboxanes after 24 hours of coagulation (Coag.) in the presence or absence of (A) 100 μM indomethacin (Indo.) (n=six individual donors), (B) 500 nM celecoxib (CLX) or 20 μM BAI (n=three individual donors). […]

For data set [5] the following is noted: ADA, P<0.01. The method, then:
Human blood was subjected to the same freeze-thaw procedure as was used for the metabololipidomics. After centrifugation at 1000 g at 4° C. for 5 min, supernatants were reconstituted with 4 volumes of methanol and kept on ice for 30 min to facilitate protein precipitation. Samples were then subjected to centrifugation at 1000 g at 4° C. for 5 min. Supernatants were reconstituted to <1% methanol and then taken to LC-MS/MS for identification and quantitation of adenosine by matched retention time with ≥99%, pure adenosine (Sigma) through MRM transition 268>136 for the protonated adenine fragment (54).

For data set [6], the system named is neutrophil-platelet aggregates. The data set can be described thus: Neutrophil-platelet interactions by flow cytometry. The class given is cell-based, human. The note with it: with ADA. The method, then: Whole blood was collected from healthy individuals without anticoagulant and allowed to coagulate for 1, 6, or 24 h with or without ADA. Clots were washed with PBS and then gently homogenized and passed through a 70 micron-filter. Clot derived neutrophil-platelet interactions were analyzed by flow cytometry with FITC-conjugated anti-human CD16 antibody (clone ebio CB16), and PE-conjugated anti-human CD42b (clone HIP1). Neutrophils were identified by their cell surface expression of CD16 and high side and forward scatter. Platelets were identified based on their low side and forward scatter on a log scale and on their cell surface expression of CD42b. Neutrophil and platelet aggregates were identified as CD14-cells that were double-positive for CD42b and CD16 as CD14-,CD42b+,CD16+,SSChigh,FSChigh.

Setting [7] is: 24 h coagulation, n = 3, mean +/- S.E.M.

Like-named read-outs stand apart in the source and are kept apart here. Positions of bridges follow the written chain, without caps; N, C: chain ends. Non-standard residues stand in square brackets, D forms with d. Residues, ends and D or L forms follow the SMILES beside them. hArg = N=C(N)NCCCC[C@H](N)C(=O)O; Mpa = O=C(O)CCS

One may read the viability as the share of living cells, or the viability signal relative to a control.

Take `N=C(N)NCCCC[C@@H]1NC(=O)CCSSC[C@@H](C(N)=O)NC(=O)[C@@H]2CCCN2C(=O)[C@H](Cc2c[nH]c3ccccc23)NC(=O)[C@H](CC(=O)O)NC(=O)CNC1=O` [Eptifibatide, eptifibatide, reference compound] ([Mpa][hArg]GDWPC-NH2; disulfide 1-7): in data set [1], the Early apoptosis was found to be 5.1 ± 1.9%, the Late apoptosis is on record as 2.0 ± 0.5%, the Necrotic came out at 0.9 ± 0.1% and the “cell viability (in words)” value was “without reducing cell viability”. Also, the viability at 24 h in data set [2] stood at 90.6 ± 1.3%. Moreover, in data set [3], the “increase in clot volume” value is reported as around 20%. For the same molecule, the “reduction of the total amount of the SPM cluster” value in data set [4] (eptifibatide 20 μM, 24 hours of coagulation, P<0.01) is given as around 50%.

B1: adenosine deaminase (protein, UniProt P00813 2-363, looked up)
Adenosine deaminase: AQTPAFDKPKVELHVHLDGSIKPETILYYGRRRGIALPANTAEGLLNVIGMDKPLTLPDFLAKFDYYMPAIAGCREAIKRIAYEFVEMKAKEGVVYVEVRYSPHLLANSKVEPIPWNQAEGDLTPDEVVALVGQGLQEGERDFGVKARSILCCMRHQPNWSPKVVELCKKYQQQTVVAIDLAGDETIPGSSLLPGHVQAYQEAVKSGIHRTVHAGEVGSAEVVKEAVDILKTERLGHGYHTLEDQALYNRLRQENMHFEICPWSSYLTGAWKPDTEHAVIRLKNDQANYSLNTDDPLIFKSTLDTDYQMTKRDMGFTEEEFKRLNINAAKSSFLPEDEKRELLDLLYKAYGMPPSASAGQNL
notes: human recombinant adenosine deaminase, removes adenosine
With B1, the “time by which adenosine was cleared during coagulation” value in data set [5] was at most 1 h. In data set [1] (setting [7]), this molecule came in with an Early apoptosis of 9.9 ± 2.9%, a Late apoptosis of 5.8 ± 1.4%, a Live of 81.5 ± 0.5% and a Necrotic of 2.7 ± 2.0%. In addition, the “cell viability (in words)” value in data set [1] (during coagulation) is “Cell viability was not decreased”. Also, the “number of platelet-neutrophil aggregates during the time course of coagulation” value in data set [6] was “statistically significantly increased”. Further, the “total SPM production vs. coagulation alone” value in data set [4] (200 mU ADA, 24 hours) was “more than 8 times”.

The values above are taken from patent US11592453B2, “Personalized metabolomic profiling of specialized pro-resolving mediators” (THE BRIGHAM AND WOMEN'S HOSPITAL, INC., priority 2016, dated 2023).
